For orientation: Kd means a measure of binding affinity in units of concentration.

In experiment [1] the target is PcrV antigen of Pseudomonas aeruginosa (recombinant PcrV) (Pseudomonas aeruginosa). Briefly: biolayer interferometry, ForteBio Octet.
Experiment [2] concerns the target PcrV on Pseudomonas aeruginosa strain PA103 (type III secretion system) (Pseudomonas aeruginosa strain PA103). Briefly: cell-based or functional assay.

Consider Mab166 Fab, for which the dissociation constant (Kd) in experiment [1] turned out to be 1.4 nM. Moreover, the IC50 (nM), TTSS-dependent cytotoxicity assay (PA103 killing of P3-X63-Ag8 myeloma cells, propidium iodide flow cytometry) in experiment [2] was determined as 53 nM.

These data come from patent US20100272736A1, “COMBINATION ANTIBIOTIC AND ANTIBODY THERAPY FOR THE TREATMENT OF PSEUDOMONAS AERUGINOSA INFECTION” (priority 2009, published 2010).
